Reference: patent US20130059772A1, “Use of Repeat Sequence Protein Polymers in Personal Care Compositions” (DANISCO US INC., priority 2003, published 2013)

How the values were obtained:
[1] = test system: Fibroblasts (HDFn Cell Line); assay: MTT assay (second cell viability assay); settings: 48 hours
Text: The purple crystals are extracted from the cells with isopropanol and the amount of crystal formation quantified spectrophotometrically. The intensity of the purple color is directly proportional to the metabolic activity of the cultured cells, which normally is used as an indication of an increase in the number of viable cells, although it can also indicate an increase in the mitochondrial content of the existing cells (Alley et al., Cancer Res., 48:589-601 1988). A decrease in color intensity can be a sign of toxicity.
Fibroblasts (Cascade Biologics, HDFn Cell Line, lot#1C0914) were seeded into the individual wells of either a 96-well plate (for the initial pilot work to determine concentration effects on cell viability) in 100 μl of Fibroblast Growth Media (FGM) or in 12-well plates (for the measurement of collagen, elastin and MMP-1) in 1.0 ml of FGM and incubated overnight at 37±2° C. and 5±1% CO2. On the following day, the medium was removed via aspiration to eliminate any non-adherent cells and replaced with fresh FGM. The cells were grown until confluent, with a media change every 48 to 72 hours. Upon reaching confluency, the cells were treated for 24 hours with Dulbecco's Modified Essential Media (DMEM) supplemented with 1.5% FBS to wash out any effects from the growth factors included in the normal FGM. After this 24-hour wash out period, the cells were treated with the test materials at the specified concentrations dissolved in DMEM with 1.5% FBS. […]
After the 2-day incubation, the cell culture medium was removed and the fibroblasts were washed twice with PBS to remove any remaining test material. […] The 96-well plates were read at 540 nm using isopropyl alcohol as a blank. The mean MTT absorbance value for the negative control cells was calculated and used to represent 100% value for cell viability. The individual MTT values from the cells undergoing the various treatments were then divided by the mean value for the negative control cells and expressed as a percent, to determine the change in cell viability caused by each treatment.

[2] = Isoelectric point determination (IEF gel); assay type: physicochemical; settings: stated in production example
Procedure: In this Example, experiments performed to determine the isoelectric point and cloud point of SELP47K (Example 1) are described. The isoelectric point of SELP47K was determined by electrophoresing 5 mg/ml SELP47K solution using Isoelectric Focusing Electrophoresis (IEF) gel and Novex electrophoresis apparatus along with protein standards markers.

B1: GC2596-26-D: SELP47K modified with two units of ALSYP (SEQ ID NO:36) peptides in each SELP47K unit; SEQ ID NO:32 (Example 4) (protein)
chain: MDPVVLQRRDWENPGVTQLNRLAAHPPFASDPMGAGAGSGAGAGSALSYPGVGVPGVGVPGVGVPGVGVPGKGVPGVGVPGVGVPGVGVPALSYPGAGAGSGAGAGSGAGAGSGAGAGSALSYPGVGVPGVGVPGVGVPGVGVPGKGVPGVGVPGVGVPGVGVPALSYPGAGAGSGAGAGSGAGAGSGAGAGSALSYPGVGVPGVGVPGVGVPGVGVPGKGVPGVGVPGVGVPGVGVPALSYPGAGAGSGAGAGSGAGAGSGAGAGSALSYPGVGVPGVGVPGVGVPGVGVPGKGVPGVGVPGVGVPGVGVPALSYPGAGAGSGAGAGSGAGAGSGAGAGSALSYPGVGVPGVGVPGVGVPGVGVPGKGVPGVGVPGVGVPGVGVPALSYPGAGAGSGAGAGSGAGAGSGAGAGSALSYPGVGVPGVGVPGVGVPGVGVPGKGVPGVGVPGVGVPGVGVPALSYPGAGAGSGAGAGSGAGAGSGAGAGSALSYPGVGVPGVGVPGVGVPGVGVPGKGVPGVGVPGVGVPGVGVPALSYPGAGAGSGAGAGSGAGAGSGAGAGSALSYPGVGVPGVGVPGVGVPGVGVPGKGVPGVGVPGVGVPGVGVPALSYPGAGAGSGAGAGSGAGAGSGAGAGSALSYPGVGVPGVGVPGVGVPGVGVPGKGVPGVGVPGVGVPGVGVPALSYPGAGAGSGAGAGSGAGAGSGAGAGSALSYPGVGVPGVGVPGVGVPGVGVPGKGVPGVGVPGVGVPGVGVPALSYPGAGAGSGAGAGSGAGAGSGAGAGSALSYPGVGVPGVGVPGVGVPGVGVPGKGVPGVGVPGVGVPGVGVPALSYPGAGAGSGAGAGSGAGAGSGAGAGSALSYPGVGVPGVGVPGVGVPGVGVPGKGVPGVGVPGVGVPGVGVPALSYPGAGAGSGAGAGSGAGAGSGAGAGSALSYPGVGVPGVGVPGVGVPGVGVPGKGVPGVGVPGVGVPGVGVPALSYPGAGAGSGAGAGSGAGAMDPGRYQDLRSHHHHHH
modifications: SELP 47K-P4
- Percent Viability ([1]; 0.0014%): 100 ± 3%
- Percent Viability ([1]; 0.007%): 103 ± 2%
- Percent Viability ([1]; 0.014%): 106 ± 5%

B2: GC2596-26-E: collagen-like repeat sequence protein polymer, head-[(GAHGPAGPK)2(GAQGPAGPG)24(GAHGPAGPK)2]4-tail; SEQ ID NO:34 (Example 5) (protein)
chain: MDPVVLQRRDWENPGVTQLNRLAAHPPFASDPMGAHGPAGPKGAHGPAGPKGAQGPAGPGGAQGPAGPGGAQGPAGPGGAQGPAGPGGAQGPAGPGGAQGPAGPGGAQGPAGPGGAQGPAGPGGAQGPAGPGGAQGPAGPGGAQGPAGPGGAQGPAGPGGAQGPAGPGGAQGPAGPGGAQGPAGPGGAQGPAGPGGAQGPAGPGGAQGPAGPGGAQGPAGPGGAQGPAGPGGAQGPAGPGGAQGPAGPGGAQGPAGPGGAQGPAGPGGAHGPAGPKGAHGPAGPKGAHGPAGPKGAHGPAGPKGAQGPAGPGGAQGPAGPGGAQGPAGPGGAQGPAGPGGAQGPAGPGGAQGPAGPGGAQGPAGPGGAQGPAGPGGAQGPAGPGGAQGPAGPGGAQGPAGPGGAQGPAGPGGAQGPAGPGGAQGPAGPGGAQGPAGPGGAQGPAGPGGAQGPAGPGGAQGPAGPGGAQGPAGPGGAQGPAGPGGAQGPAGPGGAQGPAGPGGAQGPAGPGGAQGPAGPGGAHGPAGPKGAHGPAGPKGAHGPAGPKGAHGPAGPKGAQGPAGPGGAQGPAGPGGAQGPAGPGGAQGPAGPGGAQGPAGPGGAQGPAGPGGAQGPAGPGGAQGPAGPGGAQGPAGPGGAQGPAGPGGAQGPAGPGGAQGPAGPGGAQGPAGPGGAQGPAGPGGAQGPAGPGGAQGPAGPGGAQGPAGPGGAQGPAGPGGAQGPAGPGGAQGPAGPGGAQGPAGPGGAQGPAGPGGAQGPAGPGGAQGPAGPGGAHGPAGPKGAHGPAGPKGAHGPAGPKGAHGPAGPKGAQGPAGPGGAQGPAGPGGAQGPAGPGGAQGPAGPGGAQGPAGPGGAQGPAGPGGAQGPAGPGGAQGPAGPGGAQGPAGPGGAQGPAGPGGAQGPAGPGGAQGPAGPGGAQGPAGPGGAQGPAGPGGAQGPAGPGGAQGPAGPGGAQGPAGPGGAQGPAGPGGAQGPAGPGGAQGPAGPGGAQGPAGPGGAQGPAGPGGAQGPAGPGGAQGPAGPGGAHGPAGPKGAHGPAGPKMDPGRYQLSAGRYHYQLVWCQK
modifications: silk-elastin repeat sequence protein copolymer
- pI of the protein [2]: 11.18
